Results as given in patent publication US20100029702A1, “Method For Identification of Compound Having Anti-Anxiety Effect” (priority 2006, published 2010).

Assays:
[1] = molecular target: T1, protein encoded by ph01207 (Homo sapiens, UniProt O60241, DEL308-362); assay: Changes in intracellular Ca2+ concentration in HA-ph01207#10-6 cell strain (CHO-K1 stably expressing ph01207); format: cell-based; conditions: peptide at final concentration 1 nM
T1 construct: expressed in transfected cells; host or cells: CHO-K1 (HA-ph01207#10-6, FERM BP-10101), T8HA-attR/pCINeo
T1 sequence (O60241 with tags, fused parts or gaps DEL308-362): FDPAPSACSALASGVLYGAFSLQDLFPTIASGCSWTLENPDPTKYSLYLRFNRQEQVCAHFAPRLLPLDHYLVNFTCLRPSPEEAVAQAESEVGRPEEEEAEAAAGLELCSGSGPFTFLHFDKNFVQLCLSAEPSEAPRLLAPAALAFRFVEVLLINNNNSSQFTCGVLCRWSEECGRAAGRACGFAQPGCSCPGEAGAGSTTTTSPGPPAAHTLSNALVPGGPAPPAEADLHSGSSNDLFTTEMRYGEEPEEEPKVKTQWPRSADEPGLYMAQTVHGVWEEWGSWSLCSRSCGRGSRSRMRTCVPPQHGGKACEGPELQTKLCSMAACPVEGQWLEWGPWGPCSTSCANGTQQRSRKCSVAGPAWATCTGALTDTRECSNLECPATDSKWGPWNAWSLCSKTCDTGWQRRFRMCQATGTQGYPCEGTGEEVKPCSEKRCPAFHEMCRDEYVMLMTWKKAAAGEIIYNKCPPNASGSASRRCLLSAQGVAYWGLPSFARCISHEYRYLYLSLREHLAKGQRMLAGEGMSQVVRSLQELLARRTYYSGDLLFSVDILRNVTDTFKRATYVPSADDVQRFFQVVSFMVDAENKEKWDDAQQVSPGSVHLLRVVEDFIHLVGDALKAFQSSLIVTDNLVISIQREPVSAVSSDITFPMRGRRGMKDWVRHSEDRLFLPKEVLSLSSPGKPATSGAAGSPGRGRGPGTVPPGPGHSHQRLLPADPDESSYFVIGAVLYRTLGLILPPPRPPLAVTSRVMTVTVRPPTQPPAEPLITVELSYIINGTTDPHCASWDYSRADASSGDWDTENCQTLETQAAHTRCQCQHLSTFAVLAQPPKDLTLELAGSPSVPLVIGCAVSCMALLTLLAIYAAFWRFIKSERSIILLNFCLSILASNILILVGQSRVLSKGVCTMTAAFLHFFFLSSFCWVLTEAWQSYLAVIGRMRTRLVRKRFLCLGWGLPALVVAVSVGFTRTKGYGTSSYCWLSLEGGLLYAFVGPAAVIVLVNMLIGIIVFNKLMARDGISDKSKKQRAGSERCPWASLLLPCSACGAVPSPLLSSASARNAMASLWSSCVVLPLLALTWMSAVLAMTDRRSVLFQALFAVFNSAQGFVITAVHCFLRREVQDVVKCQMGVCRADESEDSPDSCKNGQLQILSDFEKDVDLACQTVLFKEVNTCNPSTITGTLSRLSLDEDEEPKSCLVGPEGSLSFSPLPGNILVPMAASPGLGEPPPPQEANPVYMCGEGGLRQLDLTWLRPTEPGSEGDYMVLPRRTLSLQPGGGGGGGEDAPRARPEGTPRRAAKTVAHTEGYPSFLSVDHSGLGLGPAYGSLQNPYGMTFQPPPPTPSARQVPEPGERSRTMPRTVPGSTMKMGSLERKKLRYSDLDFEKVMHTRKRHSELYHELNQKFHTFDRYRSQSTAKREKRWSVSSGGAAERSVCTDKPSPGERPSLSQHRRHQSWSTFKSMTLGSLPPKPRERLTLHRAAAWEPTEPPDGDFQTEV
Experimental: Changes in the intracellular calcium (Ca^2+) concentration induced by CCK-8S (SEQ ID NO: 14), CCK-8NS, or CCK-4 were measured using the cell strains expressing ph01207 prepared in Example 2. The cell strains prepared in Example 2 were eight strains that expressed the protein encoded by ph01207 as FLAG-tag fusion proteins and four strains that expressed the protein encoded by ph01207 as HA-tag fusion proteins. Of these, the HA-ph01207#10-6 cell strain, a strain obtained by cloning one of the cell strains that stably expressed the protein encoded by ph01207 as HA-tag fusion proteins, was used in this example. CCK-8NS was a CCK octapeptide having the same amino acid sequence as that of CCK-8S (SEQ ID NO: 14), but a region from the C terminus to the seventh tyrosine residue was not sulfated. CCK-4 was a tetrapeptide comprising residues from the C terminus to the fourth amino acid of CCK-8S (SEQ ID NO: 14).
The specific method for measuring changes in the intracellular Ca^2+ concentration in the HA-ph01207#10-6 cell strain induced by CCK-8S (SEQ ID NO: 14) and the results are described below. The HA-ph01207#10-6 cell strain was seeded on a 96-well plate (a plate with a black wall and a transparent bottom) at a cell count of 2×10^4/100 μL medium/well and cultured at 37° C. in the presence of 5% CO2. As a medium, DMEM/F12 (Gibco) containing 10% fetal calf serum (Moregate) was used. On the following day, 50 μL of the medium was removed from each well, 50 μL of a loading buffer was added to each well, and the mixture was reacted at room temperature for 1.5 h, so that a fluorescent dye contained in the loading buffer should be taken up into the cell. The loading buffer was prepared by dissolving component A of the FLIPR Calcium 3 Assay Kit (Molecular Device) in a solution obtained by adding 0.1 mL of 500 mM probenecid (Sigma) to 9.9 mL of component B. After reaction, changes over time in the fluorescence intensity in each well after addition of CCK-8S (Peptide Institute, Inc.) were measured using the FLEX station (Molecular Device). Furthermore, similar measurement was performed for CCK-8NS (Peptide Institute, Inc.) and CCK-4 (Peptide Institute, Inc.). 0.52 mg of CCK-8S (SEQ ID NO: 14) was dissolved in 4.5 mL of 1% NaHCO3 (Wako) to prepare a solution having 0.1 mM concentration. 0.53 mg of CCK-8NS was dissolved in 0.50 mL of dimethyl sulfoxide (DMSO, Sigma), and then 4.50 mL of redistilled water H2O was added to prepare a solution having 0.1 mM concentration. 0.54 mg of CCK-4 was dissolved in 0.46 mL of DMSO, 4.09 mL of redistilled water was added to prepare a solution having 0.2 mM concentration. […]

[2] = tested on: CHO-K1 cell strain; assay: Changes in intracellular Ca2+ concentration in CHO-K1 host cell not transfected (negative control); format: cell-based, Chinese hamster; conditions: CHO-K1 not transfected; peptide 1 nM (Example 5)
Experimental: The specific method for measuring changes in the intracellular Ca^2+ concentration in the HA-ph01207#10-6 cell strain induced by CCK-8S (SEQ ID NO: 14) and the results are described below. The HA-ph01207#10-6 cell strain was seeded on a 96-well plate (a plate with a black wall and a transparent bottom) at a cell count of 2×10^4/100 μL medium/well and cultured at 37° C. in the presence of 5% CO2. As a medium, DMEM/F12 (Gibco) containing 10% fetal calf serum (Moregate) was used. On the following day, 50 μL of the medium was removed from each well, 50 μL of a loading buffer was added to each well, and the mixture was reacted at room temperature for 1.5 h, so that a fluorescent dye contained in the loading buffer should be taken up into the cell. The loading buffer was prepared by dissolving component A of the FLIPR Calcium 3 Assay Kit (Molecular Device) in a solution obtained by adding 0.1 mL of 500 mM probenecid (Sigma) to 9.9 mL of component B. After reaction, changes over time in the fluorescence intensity in each well after addition of CCK-8S (Peptide Institute, Inc.) were measured using the FLEX station (Molecular Device). Furthermore, similar measurement was performed for CCK-8NS (Peptide Institute, Inc.) and CCK-4 (Peptide Institute, Inc.). 0.52 mg of CCK-8S (SEQ ID NO: 14) was dissolved in 4.5 mL of 1% NaHCO3 (Wako) to prepare a solution having 0.1 mM concentration. 0.53 mg of CCK-8NS was dissolved in 0.50 mL of dimethyl sulfoxide (DMSO, Sigma), and then 4.50 mL of redistilled water H2O was added to prepare a solution having 0.1 mM concentration. 0.54 mg of CCK-4 was dissolved in 0.46 mL of DMSO, 4.09 mL of redistilled water was added to prepare a solution having 0.2 mM concentration. CCK-8S (SEQ ID NO: 14), CCK-8NS, and CCK-4 were diluted in phosphate-buffered physiological saline (PBS) to prepare 5 nM solutions, and 25 μL each was added (final concentration 1 nM) to perform measurement. As a positive control for including an increase in the intracellular Ca^2+ concentration, A23187 (Calbiochem) was used at a final concentration of 10 μM. As a negative control, the CHO-K1 cell strain used to prepare the HA-ph01207#10-6 cell strain as a host was used. Since the CHO-K1 cell strain was not transfected with the ph01207-expressing vector, the ph01207 gene product was not expressed.
Changes in the intracellular calcium (Ca^2+) concentration induced by CCK-8S were measured by a method similar to the method described in Example 5 using the 7tmHR stably-expressing strain and the hk01941 stably-expressing strain prepared in Example 7. As a control, a host cell not transfected with the 7tmHR-expressing vector or the hk01941-expressing vector was also used.
Cells were seeded in a 96-well plate (a plate with a black wall and a transparent bottom) at a cell count of 3×10^4/100 μL of medium/well and cultured overnight at 37° C. in a 5% CO2 incubator. On the following day, 50 μL of the medium was removed from each well, […] of a loading buffer was added to each well, and the mixture was reacted at room temperature for 1 h, so that a fluorescent dye contained in the loading buffer was taken up into the cell. The loading buffer was prepared by a method similar to the method described in Example 5. After reaction, changes over time in the fluorescence intensity in each well after addition of CCK-8S were measured using the FLEX station (Molecular Device). CCK-8S was used at a final concentration of 10 pM to 1 μM. Furthermore, as a positive control of the assay, A23187 was used at a final concentration of 20 μM.
Cells were seeded in a 96-well plate (a plate with a black wall and a transparent bottom) at a cell count of 3×10^4/100 μL of medium/well and cultured overnight at 37° C. in a 5% CO2 incubator. […]

| Substance | Change in intracellular Ca2+ concentration (fluorescence intensity) [1] | Change in intracellular Ca2+ concentration (fluorescence intensity) [2] |
| --- | --- | --- |
| CCK-8 nonsulfated form [CCK-8NS] | did not increase | not increased |
| CCK-4: tetrapeptide comprising residues from the C terminus to the fourth amino acid of CCK-8S | did not increase | not increased |
